Assay results from PMC5662751, “Post-transcriptional gene silencing mediated by microRNAs is controlled by nucleoplasmic Sfpq”.

T1: Sfpq wild-type (human, UniProt P23246 1-707)
T1 sequence: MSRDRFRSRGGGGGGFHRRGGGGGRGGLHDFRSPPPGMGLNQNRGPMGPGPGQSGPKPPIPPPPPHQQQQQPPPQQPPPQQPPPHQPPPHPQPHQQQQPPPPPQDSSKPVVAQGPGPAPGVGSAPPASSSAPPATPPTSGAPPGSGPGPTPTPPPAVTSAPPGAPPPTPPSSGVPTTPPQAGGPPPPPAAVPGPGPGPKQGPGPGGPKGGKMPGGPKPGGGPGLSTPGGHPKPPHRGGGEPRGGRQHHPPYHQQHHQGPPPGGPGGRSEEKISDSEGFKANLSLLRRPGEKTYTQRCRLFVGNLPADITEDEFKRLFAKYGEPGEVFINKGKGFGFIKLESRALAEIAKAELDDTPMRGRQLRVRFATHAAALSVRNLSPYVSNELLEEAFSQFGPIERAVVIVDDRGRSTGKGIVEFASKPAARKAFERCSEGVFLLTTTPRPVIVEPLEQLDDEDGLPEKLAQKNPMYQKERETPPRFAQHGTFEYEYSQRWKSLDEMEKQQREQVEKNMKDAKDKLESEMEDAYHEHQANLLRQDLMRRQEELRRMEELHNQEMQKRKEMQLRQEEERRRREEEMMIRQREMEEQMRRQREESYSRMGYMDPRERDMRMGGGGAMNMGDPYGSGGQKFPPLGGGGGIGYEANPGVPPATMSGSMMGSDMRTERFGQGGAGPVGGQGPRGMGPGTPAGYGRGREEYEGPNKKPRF


Target: T1, Sfpq wild-type
Assay: UV crosslinking; 100 nM Sfpq; EMSA: 75 mM Hepes pH 7.9, 150 mM NaCl, 75 mM KCl, 0.1 mM EDTA, 5 mM DTT, 5 mM PMSF, 15% glycerol, 15 min, room temperature; AFM: 120 mM NaCl, 24 mM Tris-HCl pH
Settings: protein: recombinant, tags: 6xHis (pET15b), chain copies: 2, label: 32P

Row | Binder | binding result (two copies of CUGUA (contains CUGU)) | binding result
1 | CUGUACUGUA (ssRNA) [CUGU/CUGUA x2 oligo] | binds | 
2 | CCCCGCCCCG (ssRNA) [Sfpq negative RNA oligo (CCCCG x2)] |  | no binding
